From IntAct's records for PubMed 21441902

B1: mRNA export factor GLE1 (Saccharomyces cerevisiae), Q12315 (parent)
chain: MRFVFDEVFNSDTDSPEFEETCSTTSSTSSQCPTPEPSPAIKLPSFTKVGTKKLVNESVVILDPALENALRDLNLQSKLIPINEPIVAASSIIVPHSTNMPLPRASHSSLLDNAKNSNATAPLLEAIEESFQRKMQNLVLANQKEIQSIRENKRRVEEQRKRKEEEERKRKEAEEKAKREQELLRQKKDEEERKRKEAEAKLAQQKQEEERKKIEEQNEKERQLKKEHEAKLLQQKDKLGKAVTNFDKISKMFWHYKDKIAQIKQDIVLPIKKADVNVRNLLSRHKRKINPKFGQLTNSNQQLFKIQNELTQLINDTKGDSLAYHWILNFIAKAVVHQAETEVRVKPESALPLGKLTLYLLVQFPELQELFMARLVKKCPFVIGFTCEIDTEKGRQNMGWKRNNENKWEDNTSYDERMGGILSLFAIITRLQLPQEFITTTSHPFPIALSWHILARICNTPLNLITNTHFVILGSWWDAAAVQFLQAYGNQASKLLILIGEELTSRMAEKKYVGAARLRILLEAWQNNNMESFPEMSP
partner: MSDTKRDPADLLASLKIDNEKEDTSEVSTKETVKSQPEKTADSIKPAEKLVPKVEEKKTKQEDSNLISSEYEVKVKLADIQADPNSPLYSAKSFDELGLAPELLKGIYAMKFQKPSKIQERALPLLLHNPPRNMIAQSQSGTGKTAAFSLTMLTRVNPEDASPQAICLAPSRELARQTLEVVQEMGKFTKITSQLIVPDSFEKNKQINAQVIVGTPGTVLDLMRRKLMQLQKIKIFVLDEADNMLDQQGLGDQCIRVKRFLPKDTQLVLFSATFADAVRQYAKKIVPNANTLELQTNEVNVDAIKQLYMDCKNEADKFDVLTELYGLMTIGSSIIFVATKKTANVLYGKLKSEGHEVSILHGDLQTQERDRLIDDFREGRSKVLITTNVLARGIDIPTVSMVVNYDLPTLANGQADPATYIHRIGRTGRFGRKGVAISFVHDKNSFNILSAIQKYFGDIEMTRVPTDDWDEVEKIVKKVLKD
B2: ATP-dependent RNA helicase DBP5 (Saccharomyces cerevisiae), P20449 (parent)
chain: B1 partner
partner: B1 chain

Variants of: B1
Conditions: with dbp5_yeast DBP5, P20449

Row | Variant | effect of a mutation on the interaction
1 | V513D;A516D;I520D | disrupting interaction

Variants of: B2
Conditions: with gle1_yeast GLE1, Q12315

Row | Variant | effect of a mutation on the interaction
2 | L327V;K477A;K481A | disrupting interaction
